Experimental findings from publication PMC9928087, “Plasmids manipulate bacterial behaviour through translational regulatory crosstalk” are described below.

The first series deals with T1, RsmQ (Pseudomonas fluorescens SBW25 plasmid …, UniProt UPI00015066B5 1-62).
T1 sequence: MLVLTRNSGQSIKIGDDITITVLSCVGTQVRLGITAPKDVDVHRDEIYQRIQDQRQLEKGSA
Put plainly: SPR (ReDCaT); 500 nM protein; HBS-EP+ (10 mM HEPES, 150 mM NaCl, 3 mM EDTA, 0.05% v/v Tween 20, pH 7.4), 20 C, Biacore 8K, ReDCaT SA chip; high values mean tight binding. The note with it: protein: recombinant; tags: C-terminal TEV site + 6xHis; chain copies: 2. For orientation: Surface plasmon resonance follows binding to a sensor surface in real time, without labels.
As to TCTGTAATGACCACGGAAAAAGTGAAGTA (ssDNA) [PFLU4891], the binding signal was 28.28 ± 0.104 %Rmax.

As to TTATTATTCGCCAGGGACGGCATTCGGGG (structured_DNA) [PFLU3378], the binding signal amounted to 130.9 ± 0.261 %Rmax.

Regarding CCGCGCAGGAAGCGCAAAC (structured_DNA) [Bind_HP (GGA hairpin)], the binding signal stood at 97.319 ± 0.0324 %Rmax.

In the case of GACATTAATCATATGGAGACACCCTCATG (ssDNA) [PFLU4688], the binding signal was 18.86 ± 0.102 %Rmax.

As to AACAATAATGCACATGGAGTAGCGTCGATG (ssDNA) [PFLU0923], the binding signal was 76.5 ± 1.26 %Rmax.

On to CAAAAATATAAATACCCGCGGGTGAAGTC (ssDNA) [PFLU2358], for which the binding signal came out at 21.4 ± 0.255 %Rmax.

On to TCCAGTTTAGGCTTCTAAGGAGCACACCC (ssDNA) [PFLU4414], for which the binding signal is 24 ± 0.491 %Rmax.

CCGCGCACGGAAGCGCAAAC (structured_DNA) [Full_Bind_HP (ACGGA hairpin)]: the binding signal is 61.28 ± 0.301 %Rmax.

Take TGCCCCCTTCAGATGGAGTTTCCCCCCGC (ssDNA) [PFLU5986]: the binding signal amounted to 23.9 ± 0.356 %Rmax.

As for CGCCATTCTTCAAGGGAGAGCCGTGTGGC (ssDNA) [PFLU1516], the binding signal amounted to 63.68 ± 0.594 %Rmax.

Consider ACTCAACCAGGAATAAGGAATACAAGAAA (ssDNA) [PFLU0296], for which the binding signal worked out at 29.5 ± 0.904 %Rmax.

As for GAAACATTCCGAACGGAGAAAAAACTGGC (ssDNA) [PFLU2486], the binding signal was determined as 19.6 ± 0.424 %Rmax.

On to TATAAGACTCGTACCCCGGAGCGCTCTCG (ssDNA) [PFLU4968], for which the binding signal was determined as 17.5 ± 0.242 %Rmax.

On to GAAGACTTCGGCATGGAAGCGGCGCGAAC (ssDNA) [PFLU4726], for which the binding signal turned out to be 52.22 ± 0.504 %Rmax.

As for AACGGTTCAAATATTCAGAGGATCCAGCT (ssDNA) [PFLU6118], the binding signal was determined as 21.2 ± 0.215 %Rmax.

In the case of GGCCGCCCTCTCCGCTGATGGTCGTCTCG (ssDNA) [PFLU3427], the binding signal is 14.53 ± 0.0808 %Rmax.

As to CGCATCATTTACATGGAAGCGAGTAATCA (ssDNA) [PFLU3467], the binding signal is 26.05 ± 0.116 %Rmax.

On to AAGACCAGATCCAGGGATATGACGACGCA (ssDNA) [PFLU5652], for which the binding signal is 24.3 ± 0.196 %Rmax.

On to AGTCCTTTAGGCAAGGAGTTAATTGTCGT (ssDNA) [PFLU5529], for which the binding signal was found to be 41.03 ± 0.156 %Rmax.

In the case of CGCCCGTGATCCCATGGAAACTCGAAGACT (ssDNA) [PFLU0998], the binding signal turned out to be 19.2 ± 0.463 %Rmax.

Consider GGAAGTTTTACTAGGGAAGTTGCTATTGC (ssDNA) [PFLU4443 (fleQ)], for which the binding signal was determined as 83.36 ± 0.145 %Rmax.

As for CTGCGCTCCCGATCCTGGATTTTCCGGCC (ssDNA) [PFLU5864], the binding signal is 19.55 ± 0.081 %Rmax.

GTGAGGACTTTAATGGACGACAACAAGAA (ssDNA) [PFLU1189]: the binding signal stood at 24.64 ± 0.224 %Rmax.

In the case of TTCTAATCGCCTAAGGAGCATTGAGATGT (ssDNA) [PFLU4548], the binding signal amounted to 25.35 ± 0.144 %Rmax.

Take CACCAACCCTGCACGTGGAGAGAACAACA (ssDNA) [PFLU5567]: the binding signal is 19.8 ± 0.479 %Rmax.

In the case of TCATTACCCTGCAGGGACCAAATCAACTG (ssDNA) [PFLU5860], the binding signal turned out to be 23.7 ± 0.45 %Rmax.

The test system of the next series is RsmQ (Pseudomonas fluorescens SBW25 plasmid pQBR103). Put plainly: SPR. The note with it: 100 nM protein; mean of 0.445 and 0.102; listed as None 2; SPR (ReDCaT SA chip, Biacore 8K): 10 mM HEPES, 150 mM NaCl, 3 mM EDTA, 0.05% Tween 20, pH 7.4, 20 C; RsmQ 100 and 1000 nM (Fig 4: 100-1000 nM).
Take “CCGCGCACCCAGCGCAAACCCTACCCTACGTCCTCCTGC [NoBind_HP_2]”: the binding signal was 0.27 %Rmax.

The same series, now with this note: 100 nM protein; mean of 102.98 and 94.19; SPR (ReDCaT SA chip, Biacore 8K): 10 mM HEPES, 150 mM NaCl, 3 mM EDTA, 0.05% Tween 20, pH 7.4, 20 C; RsmQ 100 and 1000 nM (Fig 4: 100-1000 nM).
Turning to “CCGCGCAGGAAGCGCAAACCCTACCCTACGTCCTCCTGC [Bind_HP (GGA hairpin)]”, the binding signal was 98.6 %Rmax.

The same series, now with this note: SPR (ReDCaT SA chip, Biacore 8K): 10 mM HEPES, 150 mM NaCl, 3 mM EDTA, 0.05% Tween 20, pH 7.4, 20 C; RsmQ 100 and 1000 nM (Fig 4: 100-1000 nM).
For “TCTGTAATGACCACGGAAAAAGTGAAGTACCTACCCTACGTCCTCCTGC [PFLU4891]”, the binding signal was below 50 %Rmax.

With “TATAAGACTCGTACCCCGGAGCGCTCTCGCCTACCCTACGTCCTCCTGC [PFLU4968]”, the binding signal was below 50 %Rmax.

As to “GAAACATTCCGAACGGAGAAAAAACTGGCCCTACCCTACGTCCTCCTGC [PFLU2486]”, the binding signal is below 50 %Rmax.

For “GACATTAATCATATGGAGACACCCTCATGCCTACCCTACGTCCTCCTGC [PFLU4688]”, the binding signal was below 50 %Rmax.

Regarding “GTGAGGACTTTAATGGACGACAACAAGAACCTACCCTACGTCCTCCTGC [PFLU1189]”, the binding signal is below 50 %Rmax.

For “CACCAACCCTGCACGTGGAGAGAACAACACCTACCCTACGTCCTCCTGC [PFLU5567]”, the binding signal is below 50 %Rmax.

Turning to “AAGACCAGATCCAGGGATATGACGACGCACCTACCCTACGTCCTCCTGC [PFLU5652]”, the binding signal is below 50 %Rmax.

With “AGTCCTTTAGGCAAGGAGTTAATTGTCGTCCTACCCTACGTCCTCCTGC [PFLU5529]”, the binding signal was below 50 %Rmax.

“TGCCCCCTTCAGATGGAGTTTCCCCCCGCCCTACCCTACGTCCTCCTGC [PFLU5986]”: the binding signal was below 50 %Rmax.

On to “TTCTAATCGCCTAAGGAGCATTGAGATGTCCTACCCTACGTCCTCCTGC [PFLU4548]”, for which the binding signal was below 50 %Rmax.

Consider “ACTCAACCAGGAATAAGGAATACAAGAAACCTACCCTACGTCCTCCTGC [PFLU0296]”, for which the binding signal was below 50 %Rmax.

For “CGCATCATTTACATGGAAGCGAGTAATCACCTACCCTACGTCCTCCTGC [PFLU3467]”, the binding signal is below 50 %Rmax.

With “AACGGTTCAAATATTCAGAGGATCCAGCTCCTACCCTACGTCCTCCTGC [PFLU6118]”, the binding signal is below 50 %Rmax.

On to “CGCCCGTGATCCCATGGAAACTCGAAGACTCCTACCCTACGTCCTCCTGC [PFLU0998]”, for which the binding signal is below 50 %Rmax.

In the case of “TCATTACCCTGCAGGGACCAAATCAACTGCCTACCCTACGTCCTCCTGC [PFLU5860]”, the binding signal is below 50 %Rmax.

The same series, now with this note: mean of 1.178 and 0.729; SPR (ReDCaT SA chip, Biacore 8K): 10 mM HEPES, 150 mM NaCl, 3 mM EDTA, 0.05% Tween 20, pH 7.4, 20 C; RsmQ 100 and 1000 nM (Fig 4: 100-1000 nM).
For the molecule “GGGAAAAAATGTGGGCGGGTCATACCGCCCCTTTTTTTCCTACCCTACGTCCTCCTGC [RsmZ 127-end]”, the binding signal came out at 0.95 %Rmax.

The series is the same for the next values; noted with them: up to 1000 nM protein; SPR (ReDCaT SA chip, Biacore 8K): 10 mM HEPES, 150 mM NaCl, 3 mM EDTA, 0.05% Tween 20, pH 7.4, 20 C; RsmQ 100 and 1000 nM (Fig 4: 100-1000 nM).
As for “GAAGACTTCGGCATGGAAGCGGCGCGAACCCTACCCTACGTCCTCCTGC [PFLU4726]”, the binding signal was above 50 %Rmax.

“AACAATAATGCACATGGAGTAGCGTCGATGCCTACCCTACGTCCTCCTGC [PFLU0923]”: the binding signal is above 50 %Rmax.

In the case of “CGCCATTCTTCAAGGGAGAGCCGTGTGGCCCTACCCTACGTCCTCCTGC [PFLU1516]”, the binding signal was above 50 %Rmax.

As to “GGAAGTTTTACTAGGGAAGTTGCTATTGCCCTACCCTACGTCCTCCTGC [PFLU4443 (fleQ)]”, the binding signal is above 50 %Rmax.

Staying with this series, now noted: up to 1000 nM protein; highest of the genomic oligos; SPR (ReDCaT SA chip, Biacore 8K): 10 mM HEPES, 150 mM NaCl, 3 mM EDTA, 0.05% Tween 20, pH 7.4, 20 C; RsmQ 100 and 1000 nM (Fig 4: 100-1000 nM).
Turning to “TTATTATTCGCCAGGGACGGCATTCGGGGCCTACCCTACGTCCTCCTGC [PFLU3378]”, the binding signal was above 50 %Rmax.

The test system of a further series is RsmQ R44A (Pseudomonas fluorescens SBW25 plasmid pQBR103). Put plainly: SPR. The note with it: 100 nM protein; listed as None 2; SPR (ReDCaT SA chip, Biacore 8K): 10 mM HEPES, 150 mM NaCl, 3 mM EDTA, 0.05% Tween 20, pH 7.4, 20 C; RsmQ 100 and 1000 nM (Fig 4: 100-1000 nM).
For “CCGCGCACCCAGCGCAAACCCTACCCTACGTCCTCCTGC [NoBind_HP_2]”, the binding signal was -1.89 %Rmax.

The next series has as its system RsmQ H43A (Pseudomonas fluorescens SBW25 plasmid pQBR103). Put plainly: SPR. The conditions noted are these: 100 nM protein; listed as None 2; SPR (ReDCaT SA chip, Biacore 8K): 10 mM HEPES, 150 mM NaCl, 3 mM EDTA, 0.05% Tween 20, pH 7.4, 20 C; RsmQ 100 and 1000 nM (Fig 4: 100-1000 nM).
Regarding “CCGCGCACCCAGCGCAAACCCTACCCTACGTCCTCCTGC [NoBind_HP_2]”, the binding signal is -2.51 %Rmax.
